Test results reported in patent US11999805.
Each block holds one binder with its values, some of them ahead of it.

How the values were obtained:
[1] = target: SpyCas9 (S. pyogenes), Q99ZW2; experiment: cell-based or functional assay
Peptide 15 = target: T1, Peptide 15
T1 chain: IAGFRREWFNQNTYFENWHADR

Peptide 60 = target: T2, Peptide 60
T2 chain: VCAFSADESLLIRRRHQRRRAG

Peptide 90 = target: T3, Peptide 90
T3 chain: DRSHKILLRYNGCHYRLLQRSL

Peptide 91 = target: T4, Peptide 91
T4 chain: VYDFYRMLSHFFLKGPSR

Peptide 99 = target: T5, Peptide 99
T5 chain: RRSHIAWLLAMSLTWYS

Binder: VCAFSADESLLIRRRHQRRRAG (modifications not checked) [Peptide 60]
IC50(uM), FRET cleavage assay [1]: 92.2 µM | reduced editing (compared to plasmid control), A549 GFP reporter cells [1]: 30%

Binder: LNVKIGNAHLTTIMSTMPLVLC (modifications not checked) [Peptide 63]
IC50(uM), FRET cleavage assay [1]: 97.9 µM

B1: SauCas9 (protein)
chain: MKRNYILGLDIGITSVGYGIIDYETRDVIDAGVRLFKEANVENNEGRRSKRGARRLKRRRRHRIQRVKKLLFDYNLLTDHSELSGINPYEARVKGLSQKLSEEEFSAALLHLAKRRGVHNVNEVEEDTGNELSTKEQISRNSKALEEKYVAELQLERLKKDGEVRGSINRFKTSDYVKEAKQLLKVQKAYHQLDQSFIDTYIDLLETRRTYYEGPGEGSPFGWKDIKEWYEMLMGHCTYFPEELRSVKYAYNADLYNALNDLNNLVITRDENEKLEYYEKFQIIENVFKQKKKPTLKQIAKEILVNEEDIKGYRVTSTGKPEFTNLKVYHDIKDITARKEIIENAELLDQIAKILTIYQSSEDIQEELTNLNSELTQEEIEQISNLKGYTGTHNLSLKAINLILDELWHTNDNQIAIFNRLKLVPKKVDLSQQKEIPTTLVDDFILSPVVKRSFIQSIKVINAIIKKYGLPNDIIIELAREKNSKDAQKMINEMQKRNRQTNERIEEIIRTTGKENAKYLIEKIKLHDMQEGKCLYSLEAIPLEDLLNNPFNYEVDHIIPRSVSFDNSFNNKVLVKQEENSKKGNRTPFQYLSSSDSKISYETFKKHILNLAKGKGRISKTKKEYLLEERDINRFSVQKDFINRNLVDTRYATRGLMNLLRSYFRVNNLDVKVKSINGGFTSFLRRKWKFKKERNKGYKHHAEDALIIANADFIFKEWKKLDKAKKVMENQMFEEKQAESMPEIETEQEYKEIFITPHQIKHIKDFKDYKYSHRVDKKPNRELINDTLYSTRKDDKGNTLIVNNLNGLYDKDNDKLKKLINKSPEKLLMYHHDPQTYQKLKLIMEQYGDEKNPLYKYYEETGNYLTKYSKKDNGPVIKKIKYYGNKLNAHLDITDDYPNSRNKVVKLSLKPYRFDVYLDNGVYKFVTVKNLDVIKKENYYEVNSKCYEEAKKLKKISNQAEFIASFYNNDLIKINGELYRVIGVNNDLLNRIEVNMIDITYREYLENMNDKRPPRIIKTIASKTQSIKKYSTDILGNLYEVKSKKHPQIIKKG
reduction in cleavage-based fluorescence at 200 µM peptide, FRET assay (Many MPs): Many MPs also reduced SauCas9 and CjeCas9 mediated cleavage at 200 µM with a greater than 80% reduction in fluorescence | % activity, FRET cleavage assay (Peptide 15): Peptide15 significantly reduced activity of CjeCas9 and SpyCas9 and SauCas9 at 200 µM (P<0.01) | % activity, FRET cleavage assay (Peptide 60): Peptide 60, 90, and 91 significantly reduced activity of SauCas9 and SpyCas9 at 200 µM (P<0.005) | % activity, FRET cleavage assay (Peptide 90): Peptide 60, 90, and 91 significantly reduced activity of SauCas9 and SpyCas9 at 200 µM (P<0.005) | % activity, FRET cleavage assay (Peptide 91): Peptide 60, 90, and 91 significantly reduced activity of SauCas9 and SpyCas9 at 200 µM (P<0.005) | % activity, FRET cleavage assay (Peptide 99): Peptide 99 significantly reduced activity of all three Cas9 variants at 100 and 200 µM (P<0.005)

Binder: RRSHIAWLLAMSLTWYS (modifications not checked) [Peptide 99]
IC50(uM), FRET cleavage assay [1]: 48.5 µM

B2: CjeCas9 (protein)
chain: MARILAFDIGISSIGWAFSENDELKDCGVRIFTKVENPKTGESLALPRRLARSARKRLARRKARLNHLKHLIANEFKLNYEDYQSFDESLAKAYKGSLISPYELRFRALNELLSKQDFARVILHIAKRRGYDDIKNSDDKEKGAILKAIKQNEEKLANYQSVGEYLYKEYFQKFKENSKEFTNVRNKKESYERCIAQSFLKDELKLIFKKQREFGFSFSKKFEEEVLSVAFYKRALKDFSHLVGNCSFFTDEKRAPKNSPLAFMFVALTRIINLLNNLKNTEGILYTKDDLNALLNEVLKNGTLTYKQTKKLLGLSDDYEFKGEKGTYFIEFKKYKEFIKALGEHNLSQDDLNEIAKDITLIKDEIKLKKALAKYDLNQNQIDSLSKLEFKDHLNISFKALKLVTPLMLEGKKYDEACNELNLKVAINEDKKDFLPAFNETYYKDEVTNPVVLRAIKEYRKVLNALLKKYGKVHKINIELAREVGKNHSQRAKIEKEQNENYKAKKDAELECEKLGLKINSKNILKLRLFKEQKEFCAYSGEKIKISDLQDEKMLEIDHIYPYSRSFDDSYMNKVLVFTKQNQEKLNQTPFEAFGNDSAKWQKIEVLAKNLPTKKQKRILDKNYKDKEQKNFKDRNLNDTRYIARLVLNYTKDYLDFLPLSDDENTKLNDTQKGSKVHVEAKSGMLTSALRHTWGFSAKDRNNHLHHAIDAVIIAYANNSIVKAFSDFKKEQESNSAELYAKKISELDYKNKRKFFEPFSGFRQKVLDKIDEIFVSKPERKKPSGALHEETFRKEEEFYQSYGGKEGVLKALELGKIRKVNGKIVKNGDMFRVDIFKHKKTNKFYAVPIYTMDFALKVLPNKAVARSKKGEIKDWILMDENYEFCFSLYKDSLILIQTKDMQEPEFVYYNAFTSSTVSLIVSKHDNKFETLSKNQKILFKNANEKEVIAKSIGIQNLKVFEKYIVSALGEVTKAEFRQREDFKK
reduction in cleavage-based fluorescence at 200 µM peptide, FRET assay (Many MPs): Many MPs also reduced SauCas9 and CjeCas9 mediated cleavage at 200 µM with a greater than 80% reduction in fluorescence | % activity, FRET cleavage assay (Peptide 15): Peptide15 significantly reduced activity of CjeCas9 and SpyCas9 and SauCas9 at 200 µM (P<0.01) | % activity, FRET cleavage assay (Peptide 99): Peptide 99 significantly reduced activity of all three Cas9 variants at 100 and 200 µM (P<0.005)

Binder: KERRRSLMQLSVKSNSLFLGGT (modifications not checked) [Peptide 82]
IC50(uM), FRET cleavage assay [1]: > 200 µM

Continued, values first:

reduced editing (compared to plasmid control), A549 GFP reporter cells [1]: 21%
Binder: IAGFRREWFNQNTYFENWHADR (modifications not checked) [Peptide 15]

IC50(uM), FRET cleavage assay [1]: 114 µM | reduced editing (compared to plasmid control), A549 GFP reporter cells [1]: 35%
Binder: DRSHKILLRYNGCHYRLLQRSL (modifications not checked) [Peptide 90]

IC50(uM), FRET cleavage assay [1]: 145 µM | reduced editing (compared to plasmid control), A549 GFP reporter cells [1]: 30%
Binder: LYYRIMLSCPKYYPCELVGHTS (modifications not checked) [Peptide 50]
